Experiments:
[1] = system: HDAC4 expressed in Saccharomyces cerevisiae from a constitutively active promoter (pNOP)
[2] = system: flag tagged HDAC4 (overexpressed in neonatal rat cardiomyocytes)

Substance | cleavage of HDAC4 in Saccharomyces cerevisiae, westernblot analysis [1] | HDAC4 cleavage, immunoblot [2]
ABHD5 expressed in Saccharomyces cerevisiae from a Galactose inducible promoter (pGAL) | By overexpression either together or with backbone vector in Saccharomyces cerevisiae we found cleavage of HDAC4, confirmed by westernblot analysis. | 
gfp tagged abhd5 (adenoviral overexpression in neonatal rat ventricular myocytes) |  | Overexpressed flag tagged HDAC4 was cleaved whenever gfp tagged abhd5 was coexpressed.

— patent US20180258407
